B1: STAT1 (protein, UniProt P42224 2-750, looked up)
Signal transducer and …: SQWYELQQLDSKFLEQVHQLYDDSFPMEIRQYLAQWLEKQDWEHAANDVSFATIRFHDLLSQLDDQYSRFSLENNFLLQHNIRKSKRNLQDNFQEDPIQMSMIIYSCLKEERKILENAQRFNQAQSGNIQSTVMLDKQKELDSKVRNVKDKVMCIEHEIKSLEDLQDEYDFKCKTLQNREHETNGVAKSDQKQEQLLLKKMYLMLDNKRKEVVHKIIELLNVTELTQNALINDELVEWKRRQQSACIGGPPNACLDQLQNWFTIVAESLQQVRQQLKKLEELEQKYTYEHDPITKNKQVLWDRTFSLFQQLIQSSFVVERQPCMPTHPQRPLVLKTGVQFTVKLRLLVKLQELNYNLKVKVLFDKDVNERNTVKGFRKFNILGTHTKVMNMEESTNGSLAAEFRHLQLKEQKNAGTRTNEGPLIVTEELHSLSFETQLCQPGLVIDLETTSLPVVVISNVSQLPSGWASILWYNMLVAEPRNLSFFLTPPCARWAQLSEVLSWQFSSVTKRGLNVDQLNMLGEKLLGPNASPDGLIPWTRFCKENINDKNFPFWLWIESILELIKKHLLPLWNDGCIMGFISKERERALLKDQQPGTFLLRFSESSREGAITFTWVERSQNGGEPDFHAVEPYTKKELSAVTFPDIIRNYKVMAAENIPENPLKYLYPNIDKDHAFGKYYSRPKEAPEPMELDGPKGTGYIKTELISVSEVHPSRLQTTDNLLPMSPEEFDEVSRIVGSVEFDSMMNTV
B2: Shc1 (protein, UniProt P98083 1-579, looked up)
SHC-transforming protein 1: MDLLPPKPKYNPLRNESLSSLEEGASGSTPPEELPSPSASSLGPILPPLPGDDSPTTLCSFFPRMSNLKLANPAGGRLGPKGEPGKAAEDGEGSAGAALRDSGLLPLLQDMNKLSGGGGRRTRVEGGQLGGEEWTRHGSFVNKPTRGWLHPNDKVMGPGVSYLVRYMGCVEVLQSMRALDFNTRTQVTREAISLVCEAVPGAKGATRRRKPCSRPLSSILGRSNLKFAGMPITLTVSTSSLNLMAADCKQIIANHHMQSISFASGGDPDTAEYVAYVAKDPVNQRACHILECPEGLAQDVISTIGQAFELRFKQYLRNPPKLVTPHDRMAGFDGSAWDEEEEEPPDHQYYNDFPGKEPPLGGVVDMRLREGAARPTLPSAQMSSHLGATLPIGQHAAGDHEVRKQMLPPPPCPGRELFDDPSYVNIQNLDKARQAGGGAGPPNPSLNGSAPRDLFDMKPFEDALRVPPPPQSMSMAEQLQGEPWFHGKLSRREAEALLQLNGDFLVRESTTTPGQYVLTGLQSGQPKHLLLVDPEGVVRTKDHRFESVSHLISYHMDNHLPIISAGSELCLQQPVDRKV
B3: WASF3 (protein, UniProt Q9UPY6 1-502, looked up)
Actin-binding protein WASF3: MPLVKRNIEPRHLCRGALPEGITSELECVTNSTLAAIIRQLSSLSKHAEDIFGELFNEANNFYIRANSLQDRIDRLAVKVTQLDSTVEEVSLQDINMKKAFKSSTVQDQQVVSKNSIPNPVADIYNQSDKPPPLNILTPYRDDKKDGLKFYTDPSYFFDLWKEKMLQDTEDKRKEKRRQKEQKRIDGTTREVKKVRKARNRRQEWNMMAYDKELRPDNRLSQSVYHGASSEGSLSPDTRSHASDVTDYSYPATPNHSLHPQPVTPSYAAGDVPPHGPASQAAEHEYRPPSASARHMALNRPQQPPPPPPPQAPEGSQASAPMAPADYGMLPAQIIEYYNPSGPPPPPPPPVIPSAQTAFVSPLQMPMQPPFPASASSTHAAPPHPPSTGLLVTAPPPPGPPPPPPGPPGPGSSLSSSPMHGPPVAEAKRQEPAQPPISDARSDLLAAIRMGIQLKKVQEQREQEAKREPVGNDVATILSRRIAVEYSDSDDDSEFDENDWSD
B4: Pdgfra (protein, UniProt P26618 25-1089, looked up)
Platelet-derived growth …: LLLPSILPNENEKIVQLNSSFSLRCVGESEVSWQHPMSEEDDPNVEIRSEENNSGLFVTVLEVVNASAAHTGWYTCYYNHTQTDESEIEGRHIYIYVPDPDMAFVPLGMTDSLVIVEEDDSAIIPCRTTDPETQVTLHNNGRLVPASYDSRQGFNGTFSVGPYICEATVKGRTFKTSEFNVYALKATSELNLEMDARQTVYKAGETIVVTCAVFNNEVVDLQWTYPGEVRNKGITMLEEIKLPSIKLVYTLTVPKATVKDSGEYECAARQATKEVKEMKRVTISVHEKGFVEIEPTFGQLEAVNLHEVREFVVEVQAYPTPRISWLKDNLTLIENLTEITTDVQKSQETRYQSKLKLIRAKEEDSGHYTIIVQNEDDVKSYTFELSTLVPASILDLVDDHHGSGGGQTVRCTAEGTPLPEIDWMICKHIKKCNNDTSWTVLASNVSNIITELPRRGRSTVEGRVSFAKVEETIAVRCLAKNNLSVVARELKLVAPTLRSELTVAAAVLVLLVIVIVSLIVLVVIWKQKPRYEIRWRVIESISPDGHEYIYVDPMQLPYDSRWEFPRDGLVLGRILGSGAFGKVVEGTAYGLSRSQPVMKVAVKMLKPTARSSEKQALMSELKIMTHLGPHLNIVNLLGACTKSGPIYIITEYCFYGDLVNYLHKNRDSFMSQHPEKPKKDLDIFGLNPADESTRSYVILSFENNGDYMDMKQADTTQYVPMLERKEVSKYSDIQRSLYDRPASYKKKSMLDSEVKNLLSDDDSEGLTLLDLLSFTYQVARGMEFLASKNCVHRDLAARNVLLAQGKIVKICDFGLARDIMHDSNYVSKGSTFLPVKWMAPESIFDNLYTTLSDVWSYGILLWEIFSLGGTPYPGMMVDSTFYNKIKSGYRMAKPDHATSEVYEIMVQCWNSEPEKRPSFYHLSEIVENLLPGQYKKSYEKIHLDFLKSDHPAVARMRVDSDNAYIGVTYKNEEDKLKDWEGGLDEQRLSADSGYIIPLPDIDPVPEEEDLGKRNRHSSQTSEESAIETGSSSSTFIKREDETIEDIDMMDDIGIDSSDLVEDSFL
B5: PTPN18 (protein, UniProt Q99952 1-460, looked up)
Tyrosine-protein phosphatase …: MSRSLDSARSFLERLEARGGREGAVLAGEFSDIQACSAAWKADGVCSTVAGSRPENVRKNRYKDVLPYDQTRVILSLLQEEGHSDYINGNFIRGVDGSLAYIATQGPLPHTLLDFWRLVWEFGVKVILMACREIENGRKRCERYWAQEQEPLQTGLFCITLIKEKWLNEDIMLRTLKVTFQKESRSVYQLQYMSWPDRGVPSSPDHMLAMVEEARRLQGSGPEPLCVHCSAGCGRTGVLCTVDYVRQLLLTQMIPPDFSLFDVVLKMRKQRPAAVQTEEQYRFLYHTVAQMFCSTLQNASPHYQNIKENCAPLYDDALFLRTPQALLAIPRPPGGVLRSISVPGSPGHAMADTYAVVQKRGAPAGAGSGTQTGTGTGTGARSAEEAPLYSKVTPRAQRPGAHAEDARGTLPGRVPADQSPAGSGAYEDVAGGAQTGGLGFNLRIGRPKGPRDPPAEWTRV
B6: SH2D3A (protein, UniProt Q9BRG2 1-576, looked up)
SH2 domain-containing protein …: MQVPQDGEDLAGQPWYHGLLSRQKAEALLQQNGDFLVRASGSRGGNPVISCRWRGSALHFEVFRVALRPRPGRPTALFQLEDEQFPSIPALVHSYMTGRRPLSQATGAVVSRPVTWQGPLRRSFSEDTLMDGPARIEPLRARKWSNSQPADLAHMGRSREDPAGMEASTMPISALPRTSSDPVLLKAPAPLGTVADSLRASDGQLQAKAPTKPPRTPSFELPDASERPPTYCELVPRVPSVQGTSPSQSCPEPEAPWWEAEEDEEEENRCFTRPQAEISFCPHDAPSCLLGPQNRPLEPQVLHTLRGLFLEHHPGSTALHLLLVDCQATGLLGVTRDQRGNMGVSSGLELLTLPHGHHLRLELLERHQTLALAGALAVLGCSGPLEERAAALRGLVELALALRPGAAGDLPGLAAVMGALLMPQVSRLEHTWRQLRRSHTEAALAFEQELKPLMRALDEGAGPCDPGEVALPHVAPMVRLLEGEEVAGPLDESCERLLRTLHGARHMVRDAPKFRKVAAQRLRGFRPNPELREALTTGFVRRLLWGSRGAGAPRAERFEKFQRVLGVLSQRLEPDR
B7: MAPK8 (protein, UniProt P45983 1-427, looked up)
Mitogen-activated protein …: MSRSKRDNNFYSVEIGDSTFTVLKRYQNLKPIGSGAQGIVCAAYDAILERNVAIKKLSRPFQNQTHAKRAYRELVLMKCVNHKNIIGLLNVFTPQKSLEEFQDVYIVMELMDANLCQVIQMELDHERMSYLLYQMLCGIKHLHSAGIIHRDLKPSNIVVKSDCTLKILDFGLARTAGTSFMMTPYVVTRYYRAPEVILGMGYKENVDLWSVGCIMGEMVCHKILFPGRDYIDQWNKVIEQLGTPCPEFMKKLQPTVRTYVENRPKYAGYSFEKLFPDVLFPADSEHNKLKASQARDLLSKMLVIDASKRISVDEALQHPYINVWYDPSEAEAPPPKIPDKQLDEREHTIEEWKELIYKEVMDLEERTKNGVIRGQPSPLGAAVINGSQHPSSSSSVNDVSSMSTDPTLASDTDSSLEAAAGPLGCCR
B8: SH3GL2 (protein, UniProt Q99962 1-352, looked up)
Endophilin-A1: MSVAGLKKQFHKATQKVSEKVGGAEGTKLDDDFKEMERKVDVTSRAVMEIMTKTIEYLQPNPASRAKLSMINTMSKIRGQEKGPGYPQAEALLAEAMLKFGRELGDDCNFGPALGEVGEAMRELSEVKDSLDIEVKQNFIDPLQNLHDKDLREIQHHLKKLEGRRLDFDYKKKRQGKIPDEELRQALEKFDESKEIAESSMFNLLEMDIEQVSQLSALVQAQLEYHKQAVQILQQVTVRLEERIRQASSQPRREYQPKPRMSLEFPTGDSTQPNGGLSHTGTPKPSGVQMDQPCCRALYDFEPENEGELGFKEGDIITLTNQIDENWYEGMLHGHSGFFPINYVEILVALPH
B9: BAIAP2 (protein, UniProt Q9UQB8 1-552, looked up)
BAR/IMD domain-containing …: MSLSRSEEMHRLTENVYKTIMEQFNPSLRNFIAMGKNYEKALAGVTYAAKGYFDALVKMGELASESQGSKELGDVLFQMAEVHRQIQNQLEEMLKSFHNELLTQLEQKVELDSRYLSAALKKYQTEQRSKGDALDKCQAELKKLRKKSQGSKNPQKYSDKELQYIDAISNKQGELENYVSDGYKTALTEERRRFCFLVEKQCAVAKNSAAYHSKGKELLAQKLPLWQQACADPSKIPERAVQLMQQVASNGATLPSALSASKSNLVISDPIPGAKPLPVPPELAPFVGRMSAQESTPIMNGVTGPDGEDYSPWADRKAAQPKSLSPPQSQSKLSDSYSNTLPVRKSVTPKNSYATTENKTLPRSSSMAAGLERNGRMRVKAIFSHAAGDNSTLLSFKEGDLITLLVPEARDGWHYGESEKTKMRGWFPFSYTRVLDSDGSDRLHMSLQQGKSSSTGNLLDKDDLAIPPPDYGAASRAFPAQTASGFKQRPYSVAVPAFSQGLDDYGARSMSRNPFAHVQLKPTVTNDRCDLSAQGPEGREHGDGSARTLAGR

molecular target: T1, EGFR-L858R (Homo sapiens, UniProt P00533, L858R); assay: MaMTH EGFR-interactor screen, lentiviral preys against EGFR-L858R bait (interaction score); format: cell-based; details: MaMTH interaction score of prey with EGFR-L858R bait
T1 construct: with the advantage of testing full-length integral membrane proteins; (GGGGS)2 linker-Cub (human ubiquitin aa 35-76)-GAL4(1-147)-mNFkB(364-550) (C); expressed in transfected cells
Procedure, shortened: (§1)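 5×GAL4UAS-luciferase HEK293T reporter cells were lentivirally infected with preys (MOI ~0.3-0.4) and puromycin-selected ≥48 h. They were then transfected in triplicate with the EGFR bait, and luciferase was read 24 h later. Score is fold-change over averaged negative-control preys; >1 denotes interaction.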

Molecule	EGFR-L858R mean
B1	6.80
B2	21.65
B3	2.15
B4	13.73
B5	2.18
B6	7.23
B7	5.13
B8	7.85
B9	7.37

system: EGFR-Wt; assay: MaMTH EGFR-interactor screen, lentiviral preys against EGFR-wildtype bait (interaction score); format: cell-based, human; details: ratio of EGFR-Wt mean to EGFR-L858R mean interaction score
Procedure, shortened: as §1

Molecule	Wt/L858R
B1	0.69
B2	0.64
B3	0.61
B4	0.67
B5	0.71
B6	0.66
B7	0.64
B8	0.58
B9	0.66

molecular target: T2, EGFR-Wt (Homo sapiens, UniProt P00533); assay: as above; format: cell-based; details: MaMTH interaction score of prey with EGFR-Wt bait, mean
T2 construct: with the advantage of testing full-length integral membrane proteins; (GGGGS)2 linker-Cub (human ubiquitin aa 35-76)-GAL4(1-147)-mNFkB(364-550) (C); expressed in transfected cells
Procedure, shortened: as §1

Molecule	EGFR-Wt mean
B1	4.70
B2	13.89
B3	1.30
B4	9.18
B5	1.54
B6	4.75
B7	3.30
B8	4.58
B9	4.83

— patent US9958461B2, “Detection of protein to protein interactions” (THE GOVERNING COUNCIL OF THE UNIVERSITY OF TORONTO, priority 2013, dated 2018)
